Laboratory results: patent publication US20250326823A1

Legend:
Assay in all cases: cell-based or functional assay
[1] = target: SARS-CoV-2 spike (S) protein, variant JN.1.13.1 (SARS-CoV-2)
[2] = target: SARS-CoV-2 spike (S) protein, variant KP.2 (SARS-CoV-2)
[3] = target: SARS-CoV-2 spike (S) protein, variant KP.2.3 (SARS-CoV-2)
[4] = target: SARS-CoV-2 spike (S) protein, variant LB.1 (SARS-CoV-2)
[5] = target: SARS-CoV-2 spike (S) protein, D614G (SARS-CoV-2) (UniProt P0DTC2)
[6] = target: SARS-CoV-2 spike (S) protein, variant BA.2.86 (SARS-CoV-2)
[7] = target: SARS-CoV-2 spike (S) protein, variant CH.1.1 (SARS-CoV-2)
[8] = target: SARS-CoV-2 spike (S) protein, variant EG.5.1 (SARS-CoV-2)
[9] = target: SARS-CoV-2 spike (S) protein, variant JN.1 (SARS-CoV-2)
[10] = target: SARS-CoV-2 spike (S) protein, variant KP.2 (SARS-CoV-2); remark: listed apart in the source
[11] = target: SARS-CoV-2 spike (S) protein, variant KP.2.3 (SARS-CoV-2); remark: listed apart in the source
[12] = target: SARS-CoV-2 spike (S) protein, variant KP.3 (SARS-CoV-2)
[13] = target: SARS-CoV-2 spike (S) protein, variant KP.3.1.1 (SARS-CoV-2)
[14] = target: SARS-CoV-2 spike (S) protein, variant LB.1 (SARS-CoV-2); remark: listed apart in the source
[15] = target: SARS-CoV-2 spike (S) protein, variant XEC (SARS-CoV-2)
[16] = target: SARS-CoV-2 D614G spike (S) protein (SARS-CoV-2) (UniProt P0DTC2)
[17] = target: SARS-CoV-2 spike (S) protein, variant BA.1 (SARS-CoV-2) (UniProt P0DTC2)
[18] = target: SARS-CoV-2 spike (S) protein, variant BA.4/5 (SARS-CoV-2) (UniProt P0DTC2)
[19] = target: SARS-CoV-2 spike (S) protein, variant BQ.1.1 (SARS-CoV-2) (UniProt P0DTC2)
[20] = target: SARS-CoV-2 spike (S) protein, variant FL.1.5.1 (SARS-CoV-2)
[21] = target: SARS-CoV-2 spike (S) protein, variant HK.3 (SARS-CoV-2)
[22] = target: SARS-CoV-2 spike (S) protein, variant HV.1 (SARS-CoV-2)
[23] = target: SARS-CoV-2 spike (S) protein, variant JF.1 (SARS-CoV-2)
[24] = target: SARS-CoV-2 spike (S) protein, variant XBB.1 (SARS-CoV-2) (UniProt P0DTC2)
[25] = target: SARS-CoV-2 spike (S) protein, variant XBB.1.16 (SARS-CoV-2) (UniProt P0DTC2)
[26] = target: SARS-CoV-2 spike (S) protein, variant XBB.1.5 (SARS-CoV-2) (UniProt P0DTC2)
[27] = target: SARS-CoV-2 spike (S) protein, variant XBC.1 (SARS-CoV-2) (UniProt P0DTC2)

For ADG20 (antibody), the pseudovirus neutralization IC50 [1] was > 67 nM, the pseudovirus neutralization IC80 [1] was > 67 nM and the pseudovirus neutralization IC50 [2] was > 67 nM. For the same substance, the pseudovirus neutralization IC80 [2] was > 67 nM, the pseudovirus neutralization IC50 [3] was > 67 nM and the pseudovirus neutralization IC80 [3] was > 67 nM. The pseudovirus neutralization IC50 [4] was > 67 nM, the pseudovirus neutralization IC80 [4] was > 67 nM and the neutralization IC50 [5] was 0.003 µg/mL. The neutralization IC50 [6] was > 10 µg/mL, the neutralization IC50 [7] was 2.06 µg/mL and the neutralization IC50 [8] was > 10 µg/mL. For the same substance, the neutralization IC50 [9] was > 10 µg/mL, the neutralization IC50 [10] was > 10 µg/mL and the neutralization IC50 [11] was > 10 µg/mL. For the same substance, the neutralization IC50 [12] was > 10 µg/mL, the neutralization IC50 [13] was > 10 µg/mL and the neutralization IC50 [14] was > 10 µg/mL. For the same substance, the neutralization IC50 [15] was > 10 µg/mL.

For AZD3152 (antibody), the pseudovirus neutralization IC50 [16] was 0.015 µg/mL, the pseudotyped neutralization potency IC50 [17] was 0.123 nM and the pseudotyped neutralization potency IC80 [17] was 0.313 nM. The pseudotyped neutralization potency IC50 [18] was 0.102 nM, the pseudotyped neutralization potency IC80 [18] was 0.266 nM and the pseudotyped neutralization potency IC50 [19] was 0.392 nM. The pseudotyped neutralization potency IC80 [19] was 0.944 nM, the IC50, pseudovirus neutralization [20] was > 67 nM and the IC80, pseudovirus neutralization [20] was > 67 nM. For the same substance, the IC50, pseudovirus neutralization [21] was > 67 nM, the IC80, pseudovirus neutralization [21] was > 67 nM and the IC50, pseudovirus neutralization [22] was > 67 nM. For the same substance, the IC80, pseudovirus neutralization [22] was > 67 nM, the IC50, pseudovirus neutralization [23] was > 67 nM and the IC80, pseudovirus neutralization [23] was > 67 nM. For the same substance, the pseudotyped neutralization potency IC50 [24] was 0.096 nM, the pseudotyped neutralization potency IC80 [24] was 0.302 nM and the pseudotyped neutralization potency IC50 [25] was 0.092 nM. It also gave a pseudotyped neutralization potency IC80 [25] of 0.381 nM, a pseudotyped neutralization potency IC50 [26] of 0.12 nM and a pseudotyped neutralization potency IC80 [26] of 0.308 nM. The pseudotyped neutralization potency IC50 [27] was 0.0322 nM, the pseudotyped neutralization potency IC80 [27] was 0.209 nM and the neutralization IC50 [5] was 0.015 µg/mL. The neutralization IC50 [6] was 0.053 µg/mL, the neutralization IC50 [7] was 0.045 µg/mL and the neutralization IC50 [8] was > 10 µg/mL. For the same substance, the neutralization IC50 [9] was 0.766 µg/mL, the neutralization IC50 [10] was > 10 µg/mL and the neutralization IC50 [11] was > 10 µg/mL. For the same substance, the neutralization IC50 [12] was > 10 µg/mL, the neutralization IC50 [13] was > 10 µg/mL and the neutralization IC50 [14] was > 10 µg/mL. For the same substance, the neutralization IC50 [15] was > 10 µg/mL.
